Test results: publication PMC12160003 (Cell, 2025)
Like-named read-outs stand apart in the source and are kept apart here.

B1: Human Recombinant GST-METTL14 (natural protein, UniProt Q9HCE5 1-456, looked up)
chain: MDSRLQEIRERQKLRRQLLAQQLGAESADSIGAVLNSKDEQREIAETRETCRASYDTSAPNAKRKYLDEGETDEDKMEEYKDELEMQQDEENLPYEEEIYKDSSTFLKGTQSLNPHNDYCQHFVDTGHRPQNFIRDVGLADRFEEYPKLRELIRLKDELIAKSNTPPMYLQADIEAFDIRELTPKFDVILLEPPLEEYYRETGITANEKCWTWDDIMKLEIDEIAAPRSFIFLWCGSGEGLDLGRVCLRKWGYRRCEDICWIKTNKNNPGKTKTLDPKAVFQRTKEHCLMGIKGTVKRSTDGDFIHANVDIDLIITEEPEIGNIEKPVEIFHIIEHFCLGRRRLHLFGRDSTIRPGWLTVGPTLTNSNYNAETYASYFSAPNSYLTGCTEEIERLRPKSPPPKSKSDRGGGAPRGGGRGGTSAGRGRERNRSNFRGERGGFRGGRGGAHRGGFPPR
B2: Flag-tagged recombinant human METTL14 protein (natural protein, UniProt Q9HCE5 1-456, looked up)
chain: B1 chain

How the values were obtained:
[1] = molecular target: T1, Flag/His-tagged recombinant human DNMT1 protein (human, UniProt P26358 1-1616); test: co-IP
T1 sequence (P26358 whole entry): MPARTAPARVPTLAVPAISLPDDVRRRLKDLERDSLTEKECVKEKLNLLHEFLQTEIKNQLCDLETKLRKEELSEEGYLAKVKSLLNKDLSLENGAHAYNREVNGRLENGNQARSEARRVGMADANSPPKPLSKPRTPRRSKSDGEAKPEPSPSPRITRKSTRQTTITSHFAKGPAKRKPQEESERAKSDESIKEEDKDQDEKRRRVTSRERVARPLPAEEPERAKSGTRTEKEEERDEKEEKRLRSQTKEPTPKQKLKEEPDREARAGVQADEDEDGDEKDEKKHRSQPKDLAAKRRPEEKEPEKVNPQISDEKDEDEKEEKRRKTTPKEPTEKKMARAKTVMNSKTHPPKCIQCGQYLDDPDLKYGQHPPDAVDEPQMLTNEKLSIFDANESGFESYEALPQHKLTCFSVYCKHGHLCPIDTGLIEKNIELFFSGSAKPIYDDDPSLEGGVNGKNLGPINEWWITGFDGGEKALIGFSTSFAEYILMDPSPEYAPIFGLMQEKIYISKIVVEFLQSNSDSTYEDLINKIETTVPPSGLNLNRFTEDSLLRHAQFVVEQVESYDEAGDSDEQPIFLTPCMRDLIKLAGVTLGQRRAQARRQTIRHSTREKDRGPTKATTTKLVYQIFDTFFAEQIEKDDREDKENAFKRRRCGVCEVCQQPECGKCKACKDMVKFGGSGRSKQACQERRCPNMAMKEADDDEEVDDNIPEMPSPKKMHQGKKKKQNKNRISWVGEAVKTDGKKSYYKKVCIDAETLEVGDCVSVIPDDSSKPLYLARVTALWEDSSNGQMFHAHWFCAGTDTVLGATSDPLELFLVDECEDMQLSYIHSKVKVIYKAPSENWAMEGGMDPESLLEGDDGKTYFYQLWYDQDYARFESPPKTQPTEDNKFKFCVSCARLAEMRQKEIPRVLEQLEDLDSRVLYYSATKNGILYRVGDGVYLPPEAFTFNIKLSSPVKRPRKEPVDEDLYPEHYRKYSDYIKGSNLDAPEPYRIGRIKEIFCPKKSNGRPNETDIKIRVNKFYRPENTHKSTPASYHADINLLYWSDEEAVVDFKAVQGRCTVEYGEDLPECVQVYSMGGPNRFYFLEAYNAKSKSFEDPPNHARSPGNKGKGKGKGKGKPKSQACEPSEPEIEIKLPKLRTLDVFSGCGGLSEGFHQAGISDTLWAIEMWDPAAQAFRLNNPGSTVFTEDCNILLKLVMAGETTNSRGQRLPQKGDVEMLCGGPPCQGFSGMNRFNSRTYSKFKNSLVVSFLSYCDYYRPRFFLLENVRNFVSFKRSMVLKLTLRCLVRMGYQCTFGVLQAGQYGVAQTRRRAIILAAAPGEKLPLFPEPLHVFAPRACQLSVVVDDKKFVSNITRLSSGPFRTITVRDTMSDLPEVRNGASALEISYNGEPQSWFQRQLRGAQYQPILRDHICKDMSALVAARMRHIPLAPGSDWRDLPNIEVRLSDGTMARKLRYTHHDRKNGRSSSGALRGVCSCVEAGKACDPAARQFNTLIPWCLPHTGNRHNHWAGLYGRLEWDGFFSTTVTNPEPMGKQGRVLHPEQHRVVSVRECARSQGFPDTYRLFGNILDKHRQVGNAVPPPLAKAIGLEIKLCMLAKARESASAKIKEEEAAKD

[2] = molecular target: T1, Flag/His-tagged recombinant human DNMT1 …; test: co-IP; remark: listed apart in the source

Binder	binding result [1]	binding result [2]
B1	binds	
B2		binds
